± gives the uncertainty stated by the source.
Experiment: amyloid nucleation score (Sup35N fusion, yeast selection) (log enrichment); library NNK2; higher = more nucleation; inactive = no reads after selection
In short: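 The nucleation score equals the log enrichment of output over input reads from DiMSum, centred on the mode score of non-aggregating sequences. It was computed only for sequences with 100 or more input reads. The reads came from Illumina sequencing of plasmid inserts from psi-negative yeast expressing Sup35N fused to peptides of 20 random codons, induced with 100 μM copper sulfate for 24 hours and grown 7 days at 30°C without adenine and uracil.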

FLPYVIRRGWSCCPSGKWRN
amyloid nucleation score: 0.03 ± 0.55

NNDDQSFCAWVFNDVQ
amyloid nucleation score: 0.056 ± 0.6

YQKCTRIFQILCGSACLKTR
amyloid nucleation score: -0.649 ± 0.64

AIMGHGLPYGTGLMEVGGAK
amyloid nucleation score: 5.13 ± 0.084

HVILM
amyloid nucleation score: 1.65 ± 0.33

VALRFTIMDCRIYLYSLNVF
amyloid nucleation score: 0.125 ± 0.79

VKNFTPFRHILVITYNITFN
amyloid nucleation score: 1.9 ± 0.14

YNSSCCSERSYLLSVFRISR
amyloid nucleation score: 0.178 ± 0.17

RTYGYRDIQVQYRFCFCRGD
amyloid nucleation score: 8.589 ± 0.057

SVYVANYGYPRSGLN
amyloid nucleation score: 7.02 ± 0.078

ALLALTVLIYNLIDMLQVNR
amyloid nucleation score: 0.728 ± 0.8

FKVTTFYHGLSSMKDVASSY
amyloid nucleation score: -0.95 ± 0.45

IADQTSSSDYLVRTVFNFSV
amyloid nucleation score: 1.72 ± 0.099

DFNVSLSCHEKLMMVSFRWR
amyloid nucleation score: -0.373 ± 0.34

FIKRAHVERFSLPKTPWSVD
amyloid nucleation score: -1.3 ± 1

ICQRVDCSLCGPGWCTFVEH
amyloid nucleation score: 9.398 ± 0.051

LHCYCDLDDALTNPPAHHSR
amyloid nucleation score: 0.605 ± 0.34

VNAFLSLKSKACHWACGNDD
amyloid nucleation score: 3.67 ± 0.055

YMLTKYRYS
amyloid nucleation score: 0.734 ± 0.81

MNNDSAFIEYTGHQWIWGVR
amyloid nucleation score: 0.269 ± 0.26

VYFAKRLFVLFIM
amyloid nucleation score: inactive

NRADGDKFSSSPSPTWKYME
amyloid nucleation score: -0.081 ± 1.1

SYMCKAHKRLIIGGKWINGW
amyloid nucleation score: -0.031 ± 0.53

SEENYGRYLAMEVYNYSQAL
amyloid nucleation score: inactive

NVPFCIVV
amyloid nucleation score: 0.213 ± 0.57

EEYIRRQGVLTASLVYSKYI
amyloid nucleation score: inactive

EAVNGWALLHIVSQ
amyloid nucleation score: 0.111 ± 0.33

TLFGHFSYFQD
amyloid nucleation score: -0.124 ± 0.65

RGCIGK
amyloid nucleation score: -0.161 ± 0.65

FDPSMSFNWCICSFELDWAG
amyloid nucleation score: 5.321 ± 0.032

NDKSFSMLATE
amyloid nucleation score: 0.707 ± 0.46

ASWIAGYITMHTISSFP
amyloid nucleation score: 0.056 ± 0.36

SFLRSTSRDPKGCVKMRYFT
amyloid nucleation score: 1.17 ± 0.2

RWPNLSDAQVWAPTSQLLSS
amyloid nucleation score: 0.92 ± 0.32

RMYLVYNFLRLDLSARVVLA
amyloid nucleation score: inactive

KWLND
amyloid nucleation score: 0.205 ± 0.41

RISLERGNDFVTWVVYMKWA
amyloid nucleation score: -0.081 ± 0.34

HWSYKDSLWVLDAAESVNMS
amyloid nucleation score: 0.622 ± 0.66

CITVFAVINMQSAAVSCKQV
amyloid nucleation score: 6.72 ± 0.07

LLFWLIRETRSLLSIYLVGT
amyloid nucleation score: 0.198 ± 0.46

GLSMCIWCRSIQMTTLGSRY
amyloid nucleation score: 0.365 ± 0.36

LFGSVHGLTCVLSGLYCVQH
amyloid nucleation score: 10.32 ± 0.04

CASMVIMG
amyloid nucleation score: inactive

DLYIS
amyloid nucleation score: 0.13 ± 0.8

LSVCVRHEDGGSIAVECGS
amyloid nucleation score: 0.242 ± 0.77

DWRFRSGISISKYLVINLGD
amyloid nucleation score: 5.79 ± 0.063

LFSTTRFVAHKAGR
amyloid nucleation score: 0.47 ± 0.33

LFAKDGLRSRLKEC
amyloid nucleation score: -0.033 ± 0.27

LVREWHRKNSSGPRIVVRRQ
amyloid nucleation score: 4.18 ± 0.079

TTVERWVVFRKVQMRYRIRL
amyloid nucleation score: 5.396 ± 0.049

GKRVLRWTNWMAR
amyloid nucleation score: 1.83 ± 0.29

ANPWDRSFIVKVCRSDVVRV
amyloid nucleation score: 0.246 ± 0.38

IKLLLMSLTVSVTGILQFKP
amyloid nucleation score: 4.51 ± 0.05

LFFCDPWPHLMWHLPRIVHL
amyloid nucleation score: -0.748 ± 0.42

PIGLYRSMATQVNCC
amyloid nucleation score: 3.71 ± 0.094

WPGRRRYAMCVMTKRRGGLE
amyloid nucleation score: 0.422 ± 0.29

CNILH
amyloid nucleation score: 1.36 ± 0.3

DGDICLLRYFFLTMILELAI
amyloid nucleation score: -2.02 ± 0.78

FCIVQIMDVTVLGSTSATID
amyloid nucleation score: 5.592 ± 0.054

IKEFYISQNFVNSHLRLANM
amyloid nucleation score: -1.51 ± 1.1

HYLVS
amyloid nucleation score: 0.326 ± 0.49

ALFRPEYRFM
amyloid nucleation score: 2.64 ± 0.13

SWRAYSSF
amyloid nucleation score: 2.73 ± 0.081

IRYNLGGDQLG
amyloid nucleation score: -0.805 ± 0.44

LYKSGA
amyloid nucleation score: -0.574 ± 0.28

IMPLSKLCMWETIRSDGRRG
amyloid nucleation score: 1.07 ± 0.29

IKGGRQAYNPTLGEVRGCAR
amyloid nucleation score: 2.93 ± 0.13

SPDRPPSVVVVDRSGDVMVC
amyloid nucleation score: 1.57 ± 0.15

KLTLLKTL
amyloid nucleation score: inactive

PLGTSTTSFRSAVFQGMTWL
amyloid nucleation score: inactive

YITFLVWFQNFGYTGHD
amyloid nucleation score: 7.162 ± 0.062

QIYGCNWLCLQVRHPV
amyloid nucleation score: 8.061 ± 0.079

SVNYMAFWKVPTCGLQGGKG
amyloid nucleation score: -0.097 ± 0.76

TSKFSLRVFDLFSIYGYGHT
amyloid nucleation score: -0.125 ± 0.45

FRVPF
amyloid nucleation score: 2.03 ± 0.24

VLSLHDSVLLYRSAGIRYGW
amyloid nucleation score: 5.03 ± 0.058

SGYQGKYRSMSPRFKFSWVG
amyloid nucleation score: -0.392 ± 0.63

HSLFRLLRTSVHAEKSWSNS
amyloid nucleation score: 2.88 ± 0.063

WIIIFSKFV
amyloid nucleation score: -0.695 ± 0.79

GCDVDKVNGRRVVYPDTEGL
amyloid nucleation score: 0.697 ± 0.81

NSVRFSRLKRFSNCMFNHWR
amyloid nucleation score: 0.284 ± 0.65

NKVVGNTNTFLEND
amyloid nucleation score: 3.91 ± 0.094

ISHLRVLEQSLLAEWADNFP
amyloid nucleation score: 2.08 ± 0.097

CLGKSRYCISDWKFLSLWPN
amyloid nucleation score: -0.932 ± 0.55

DTKRVSINVRDNVTLRSFSW
amyloid nucleation score: -0.392 ± 0.33

RSLLVEFRRYKQRH
amyloid nucleation score: 6.238 ± 0.062

LLANPIELRRYGPTSLKVGI
amyloid nucleation score: -0.669 ± 0.55

LSSVMN
amyloid nucleation score: -0.565 ± 0.33

TMGNHFVFVS
amyloid nucleation score: inactive

RPTHEAF
amyloid nucleation score: 5.87 ± 0.089

VIFIINELYGCIASNERVCA
amyloid nucleation score: 6.281 ± 0.049

CFGVRDSGRYFDTLSNVRSR
amyloid nucleation score: 1.11 ± 0.68

VSVVDGSILMNLCLRLVLRR
amyloid nucleation score: -0.068 ± 0.79

NYMRYTYHSMCVLWFTVGEC
amyloid nucleation score: 0.864 ± 0.41

LCRVALKEDS
amyloid nucleation score: 0.436 ± 0.8

WTFEFLIRVLEWRSVMFFAG
amyloid nucleation score: inactive

NYTWSNTRLNYPLRVNATNH
amyloid nucleation score: -1.01 ± 1.1

NRECCTSDLRIMNVLRPL
amyloid nucleation score: -0.028 ± 0.18

KSMEGSNVMSRRYNWPWKDS
amyloid nucleation score: 0.062 ± 0.63

EEILHLVPINWGLYYYYTFC
amyloid nucleation score: inactive

HSLLSLLVVFYLQDRSRVIC
amyloid nucleation score: 0.848 ± 0.13

MCLYVRLWFMSPVSLDSSAL
amyloid nucleation score: -0.512 ± 0.55

FGSVEVVRRIRSFWLFESPR
amyloid nucleation score: 3.58 ± 0.14

LWNVD
amyloid nucleation score: 2.94 ± 0.19

VNEIWYDLDYEKVGFV
amyloid nucleation score: 2.81 ± 0.074

AYINRHVEWRCTVRTVALSS
amyloid nucleation score: 0.664 ± 0.38

QHKDLYLW
amyloid nucleation score: inactive

RKEVCTVRNLHSRFRGGAIR
amyloid nucleation score: -0.119 ± 0.55

FYSLLCTFPSLLTDLLLVHR
amyloid nucleation score: -0.66 ± 0.26

IRFWLRRFICD
amyloid nucleation score: -0.528 ± 0.36

DQCPFFSVWWSSLDYSWM
amyloid nucleation score: -0.094 ± 1

SDDLCHCIFGVVPGKSFPTM
amyloid nucleation score: inactive

ISAWAWHQVTWRIPGALVVG
amyloid nucleation score: 0.294 ± 1.1

NELNLDKPSDLPLS
amyloid nucleation score: 0.844 ± 0.31

CMLASSFMVVRSRLLSSRAM
amyloid nucleation score: 1.14 ± 0.32

FDYLVNIRHGCTWCRTTI
amyloid nucleation score: -0.108 ± 0.4

RVLKFFYGLTRVVS
amyloid nucleation score: 1.23 ± 0.12

VDCTEV
amyloid nucleation score: 1.26 ± 0.26

SSGTCTSHSLVLIHMGLRYV
amyloid nucleation score: -0.54 ± 0.54

VRWNIVKSCAVMDSNGIMWV
amyloid nucleation score: 0.432 ± 0.33

WRLNEDHNRYDLIPGVRGLG
amyloid nucleation score: 0.519 ± 0.56

LCLTYYRDHGVLASMYFHVW
amyloid nucleation score: 0.529 ± 0.31

CRQISGNTNVRLGASSMRII
amyloid nucleation score: -0.526 ± 0.55

TWQEAHNSQLGGFSIPEKN
amyloid nucleation score: 0.155 ± 1.1

PVCGVIALDSVTLCSSGMLL
amyloid nucleation score: 0.334 ± 0.39

FMELLYHSASYSARFTRKSR
amyloid nucleation score: 2.69 ± 0.098

KVNKMPYSLFIYLKKLNFC
amyloid nucleation score: -0.518 ± 1.1

AHTRSAMGDMPNVNGFLKCT
amyloid nucleation score: inactive

MYDCGVLFIDIRVKVGHVLE
amyloid nucleation score: 0.167 ± 0.56

LCNNPNGGIGQLKVL
amyloid nucleation score: 0.515 ± 0.64

CMRGLVKAGMIMTVFDRLSY
amyloid nucleation score: -1.22 ± 1.1

SYLVLIHKALSFGRTISDHP
amyloid nucleation score: -0.467 ± 0.29

LALTWKAWTTHSPRKLAAVF
amyloid nucleation score: 0.353 ± 0.31

ICGVSFTGAIYARGGRLRIR
amyloid nucleation score: 0.145 ± 0.63

KWSIRVGPQWV
amyloid nucleation score: 3.43 ± 0.11

TFMKGTVIT
amyloid nucleation score: 0.759 ± 0.74

FRYHRTSCQSHSVWRTFTSF
amyloid nucleation score: -0.884 ± 0.39

QFRLQWGLLVQCAGDSVLVM
amyloid nucleation score: -0.085 ± 0.61

LDYSNFNTRKFAKDEGDMRR
amyloid nucleation score: 8.371 ± 0.049

IEFSDQVRCYLFCCRC
amyloid nucleation score: 8.977 ± 0.07

WPVCTSIYMVGWWSVHTYHG
amyloid nucleation score: 0.705 ± 0.8

RLFYGCITGIVVSSILGVCM
amyloid nucleation score: 2.47 ± 0.21

VLKPYM
amyloid nucleation score: -1.3 ± 0.54

FDHHRGGNTLMQGDLLVMDF
amyloid nucleation score: 0.925 ± 0.67

RYSRFSDQSMFSRPYA
amyloid nucleation score: 0.333 ± 0.31

RMIPCLLRFGTYLFF
amyloid nucleation score: -0.509 ± 1.1

MRHILCISSVGRFNFRCCFK
amyloid nucleation score: -0.038 ± 1

YVKVVFCFDLAAMTSRRFYE
amyloid nucleation score: 0.228 ± 1

GITFPGFI
amyloid nucleation score: 0.115 ± 0.28

CFLVDFHVARSVDSYVELGS
amyloid nucleation score: -0.436 ± 1.1

CLPCCGAFNKCANRYQVSEM
amyloid nucleation score: -0.249 ± 0.39

VALFS
amyloid nucleation score: -0.029 ± 0.8

SSVVFCSNPGVYGSSRWTSV
amyloid nucleation score: 0.492 ± 0.41

PSSDGIRITSDGILMSVDNG
amyloid nucleation score: 0.918 ± 0.58

DLMDVEGLSGPPLRSMQVLK
amyloid nucleation score: 5.003 ± 0.05

LPYHCNWHMLSYLTCGYCS
amyloid nucleation score: 0.711 ± 0.6

NYIMWLWQQTGWSNGWCALI
amyloid nucleation score: 0.312 ± 0.61

EYYFSTELGGVFTLY
amyloid nucleation score: 1.18 ± 0.12

YWKGNTRIGQVLFYTLSCKT
amyloid nucleation score: 0.389 ± 0.8

HCVIQSSYLRD
amyloid nucleation score: -0.337 ± 0.54

LNRVGPLVILPIRHLQSTSL
amyloid nucleation score: 0.65 ± 0.23

MEQELMFREWLW
amyloid nucleation score: -0.284 ± 0.48

DCVNGVLFDGSPHVYGFLEW
amyloid nucleation score: 0.419 ± 0.32

LSWRFFLSCWN
amyloid nucleation score: inactive

HHNPGVWMKGSPCMWKIVQI
amyloid nucleation score: 4.76 ± 0.076

ISCKSFENTTHPALIPRVKA
amyloid nucleation score: -0.331 ± 0.5

RGADIAVRNFFDYQRRRWCN
amyloid nucleation score: 0.222 ± 0.44

IMLGTFMRNLQNLQHFVRHV
amyloid nucleation score: 0.337 ± 0.57

GVSVSSLSACPKEDFGSFSE
amyloid nucleation score: 0.051 ± 0.63

DIHRPQRYISKYSSTREWVG
amyloid nucleation score: -0.224 ± 0.32
